Values of other authors in publication PMC9697831.
Read-outs that look alike come from different tables or passages of the source.

Assays:
[1] = molecular target: Kv1.3 (Homo sapiens) (UniProt P22001)
[2] = molecular target: Kv1.3 (Homo sapiens) (UniProt P22001); remark: listed apart in the source

Kv1.3 (Homo sapiens), sequence (P22001 whole entry): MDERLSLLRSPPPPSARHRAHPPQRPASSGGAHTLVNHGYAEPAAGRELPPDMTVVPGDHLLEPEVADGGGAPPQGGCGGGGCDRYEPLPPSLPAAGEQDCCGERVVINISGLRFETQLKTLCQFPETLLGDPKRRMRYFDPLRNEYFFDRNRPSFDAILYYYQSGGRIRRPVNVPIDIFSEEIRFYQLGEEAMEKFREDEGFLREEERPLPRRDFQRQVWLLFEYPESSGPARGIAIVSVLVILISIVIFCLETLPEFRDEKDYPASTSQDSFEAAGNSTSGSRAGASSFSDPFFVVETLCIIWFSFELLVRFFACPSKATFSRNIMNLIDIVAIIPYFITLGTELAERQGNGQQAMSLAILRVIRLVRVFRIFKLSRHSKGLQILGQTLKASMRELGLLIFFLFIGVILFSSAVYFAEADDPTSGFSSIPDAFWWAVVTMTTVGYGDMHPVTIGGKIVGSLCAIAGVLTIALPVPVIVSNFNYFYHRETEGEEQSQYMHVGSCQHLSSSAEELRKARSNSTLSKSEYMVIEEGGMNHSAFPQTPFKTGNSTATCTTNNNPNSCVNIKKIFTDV
Anuroctoxin, sequence (P0C166 whole entry): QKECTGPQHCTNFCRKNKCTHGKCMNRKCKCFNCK
Ts6, sequence (P59936 23-62): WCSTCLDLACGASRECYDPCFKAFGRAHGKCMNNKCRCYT

Row | Substance | Kd [1] [nM] | Kd [2] [nM]
1 | Anuroctoxin (from UniProt P0C166) | 0.73 | 
2 | Ts6 (from UniProt P59936) |  | 0.55
